Reference: paper PMC11480844 (2024)

B1: H2-Kb / Ed5 (parent complex)
chain 1: GDSVTQTEGPVTVSESESLIINCTYSATSIAYPNLFWYVRYPGEGLQLLLKVITAGQKGSSRGFEATYNKETTSFHLQKASVQESDSAVYYCALGSYNQGKLIFGQGTKLSIKP
chain 2: DTTVKQNPRYKLARVGKPVNLICSQTMNHDTMYWYQKKPNQAPKLLLFYYDKILNREADTFEKFQSSRPNNSFCSLYIGSAGLEYSAMYLCASSRRLGASQNTLYFGAGTRLSVL
chain 3: not shown
chain 4: IQKTPQIQVYSRHPPENGKPNILNCYVTQFHPPHIEIQMLKNGKKIPKVEMSDMSFSKDWSFYILAHTEFTPTETDTYACRVKHDSMAEPKTVYWDRDM
chain 5: SIINFEKL
B2: H2-Kb / Ed21 (parent complex)
chain 1: AQSVTQPDARVTVSEGASLQLRCKYSYFGTPYLFWYVQYPRQGLQLLLKYYPGDPVVQGVNGFEAEFSKSNSSFHLRKASVHWSDWAVYFCAVSMSGGYKVVFGSGTRLLVSP
chain 2: DSGVVQSPRHIIKEKGGRSVLTCIPISGHSNVVWYQQTLGKELKFLIQHYEKVERDKGFLPSRFSVQQFDDYHSEMNMSALELEDSAMYFCASSPRQTDYTFGSGTRLLVI
chain 3: not shown
chain 4: B1 chain 4
chain 5: SIINFEKL

Variants of: B1
Assay: % of reporter cells activated (NFAT-GFP), raw
Further: test concentration or dose not given here.

Compared with chain 5 I3C, chain 5 N4Q is lower in ratio to parent: 0.673 for the first, 0.00458 for the second.

First: chain 5 I3K
Second: chain 5 I2P
The ratio to parent of the first is lower: 0.682 for the first, 1.04 for the second.

First: chain 5 N4W
Second: chain 5 F5T
The ratio to parent of the first is lower: 0.0358 for the first, 0.887 for the second.

Going from chain 5 K7C to chain 5 L8A, the ratio to parent rises from 0.686 to 0.711.

First: chain 5 K7P
Second: chain 5 L8P
The ratio to parent of the first is lower: 0.728 for the first, 0.826 for the second.

Compared with chain 5 E6D, chain 5 E6W is lower in ratio to parent: 0.941 for the first, 0.54 for the second.

First: chain 5 I2A
Second: chain 5 S1Y
The ratio to parent of the first is higher: 1.01 for the first, 0.689 for the second.

Compared with chain 5 I2Q, chain 5 K7V is lower in ratio to parent: 0.711 for the first, 0.62 for the second.

Compared with chain 5 F5N, chain 5 E6R is lower in ratio to parent: 0.855 for the first, 0.0689 for the second.

First: chain 5 I3R
Second: chain 5 F5Q
The ratio to parent of the first is lower: 0.064 for the first, 0.951 for the second.

Compared with chain 5 I3N, chain 5 S1H is higher in ratio to parent: 0.164 for the first, 0.559 for the second.

Going from chain 5 I3S to chain 5 I3F, the ratio to parent falls from 0.329 to 0.0887.

Going from chain 5 I3Y to chain 5 F5G, the ratio to parent rises from 0.0245 to 0.698.

Compared with chain 5 I2N, chain 5 L8I is higher in ratio to parent: 0.749 for the first, 0.758 for the second.

Going from chain 5 N4F to chain 5 S1V, the ratio to parent rises from 0.0112 to 0.126.

Going from chain 5 I3W to chain 5 S1N, the ratio to parent falls from 0.372 to 0.305.

First: chain 5 L8Y
Second: chain 5 L8N
The ratio to parent of the first is higher: 0.848 for the first, 0.753 for the second.

Going from chain 5 I3V to chain 5 L8V, the ratio to parent falls from 0.661 to 0.546.

Compared with chain 5 F5L, chain 5 F5C is higher in ratio to parent: 0.996 for the first, 1.04 for the second.

First: chain 5 I3D
Second: chain 5 E6H
The ratio to parent of the first is lower: 0.436 for the first, 0.554 for the second.

Going from chain 5 I3P to chain 5 E6G, the ratio to parent rises from 0.36 to 0.939.

Going from chain 5 L8C to chain 5 E6T, the ratio to parent falls from 0.929 to 0.622.

Going from chain 5 I2L to chain 5 I2G, the ratio to parent falls from 0.974 to 0.875.

Compared with chain 5 I2Y, chain 5 I3E is lower in ratio to parent: 0.642 for the first, 0.287 for the second.

First: chain 5 I2S
Second: chain 5 K7G
The ratio to parent of the first is higher: 0.989 for the first, 0.658 for the second.

Going from chain 5 K7R to chain 5 K7S, the ratio to parent falls from 0.853 to 0.605.

First: chain 5 I2E
Second: chain 5 L8T
The ratio to parent of the first is higher: 0.852 for the first, 0.671 for the second.

Compared with chain 5 S1I, chain 5 E6F is higher in ratio to parent: 0.00825 for the first, 0.506 for the second.

Going from chain 5 N4M to chain 5 S1F, the ratio to parent rises from 0.00113 to 0.0691.

Compared with chain 5 E6L, chain 5 I3M is higher in ratio to parent: 0.165 for the first, 0.723 for the second.

Going from chain 5 I2K to chain 5 F5P, the ratio to parent rises from 0.798 to 0.98.

First: chain 5 K7T
Second: chain 5 L8D
The ratio to parent of the first is lower: 0.602 for the first, 0.747 for the second.

First: chain 5 N4H
Second: chain 5 S1G
The ratio to parent of the first is lower: 0.11 for the first, 0.491 for the second.

First: chain 5 E6M
Second: chain 5 S1K
The ratio to parent of the first is lower: 0.443 for the first, 0.685 for the second.

Going from chain 5 I3L to chain 5 K7I, the ratio to parent falls from 0.897 to 0.65.

First: chain 5 E6Y
Second: chain 5 E6N
The ratio to parent of the first is higher: 0.633 for the first, 0.498 for the second.

First: chain 5 I2C
Second: chain 5 K7L
The ratio to parent of the first is higher: 0.958 for the first, 0.728 for the second.

First: chain 5 I3T
Second: chain 5 K7Q
The ratio to parent of the first is lower: 0.512 for the first, 0.648 for the second.

First: chain 5 I3Q
Second: chain 5 K7W
The ratio to parent of the first is lower: 0.162 for the first, 0.543 for the second.

Going from chain 5 I2M to chain 5 L8F, the ratio to parent falls from 0.917 to 0.694.

Compared with chain 5 F5D, chain 5 S1A is lower in ratio to parent: 0.92 for the first, 0.322 for the second.

chain 5 N4V gave a ratio to parent of 0.0109.

Variants of: B2
Assay: % of reporter cells activated (NFAT-GFP), raw

First: chain 5 S1E
Second: chain 5 S1P
The ratio to parent of the first is higher: 0.93 for the first, 0.808 for the second.

First: chain 5 K7C
Second: chain 5 S1L
The ratio to parent of the first is lower: 0.374 for the first, 0.793 for the second.

First: chain 5 K7W
Second: chain 5 I3L
The ratio to parent of the first is lower: 0.717 for the first, 1.03 for the second.

Compared with chain 5 N4Q, chain 5 L8P is higher in ratio to parent: 0.015 for the first, 0.996 for the second.

First: chain 5 S1W
Second: chain 5 S1H
The ratio to parent of the first is lower: 0.616 for the first, 0.979 for the second.

First: chain 5 L8W
Second: chain 5 S1C
The ratio to parent of the first is higher: 0.734 for the first, 0.604 for the second.

Going from chain 5 I3W to chain 5 E6P, the ratio to parent falls from 0.869 to 0.554.

Compared with chain 5 I2D, chain 5 E6T is lower in ratio to parent: 0.924 for the first, 0.46 for the second.

Compared with chain 5 E6I, chain 5 F5L is higher in ratio to parent: 0.0493 for the first, 1.05 for the second.

First: chain 5 E6W
Second: chain 5 E6F
The ratio to parent of the first is lower: 0.0831 for the first, 0.226 for the second.

Going from chain 5 S1Y to chain 5 I2H, the ratio to parent falls from 0.97 to 0.926.

First: chain 5 S1I
Second: chain 5 I2A
The ratio to parent of the first is lower: 0.745 for the first, 1.04 for the second.

First: chain 5 S1R
Second: chain 5 N4P
The ratio to parent of the first is higher: 0.785 for the first, 0.0248 for the second.

Compared with chain 5 I3T, chain 5 F5M is higher in ratio to parent: 0.952 for the first, 0.981 for the second.

Going from chain 5 E6K to chain 5 I3H, the ratio to parent rises from 0.949 to 1.

Compared with chain 5 I3E, chain 5 L8Q is lower in ratio to parent: 0.924 for the first, 0.894 for the second.

First: chain 5 K7D
Second: chain 5 L8S
The ratio to parent of the first is lower: 0.141 for the first, 0.78 for the second.

Compared with chain 5 K7Y, chain 5 I2C is higher in ratio to parent: 0.745 for the first, 0.995 for the second.

First: chain 5 S1Q
Second: chain 5 L8A
The ratio to parent of the first is higher: 0.983 for the first, 0.819 for the second.

First: chain 5 N4G
Second: chain 5 K7R
The ratio to parent of the first is lower: 0.182 for the first, 1.02 for the second.

Going from chain 5 I3V to chain 5 K7F, the ratio to parent falls from 0.872 to 0.261.

First: chain 5 E6C
Second: chain 5 S1D
The ratio to parent of the first is lower: 0.0832 for the first, 0.911 for the second.

Compared with chain 5 L8D, chain 5 I3K is higher in ratio to parent: 0.785 for the first, 0.851 for the second.

First: chain 5 E6R
Second: chain 5 I2M
The ratio to parent of the first is lower: 0.936 for the first, 0.976 for the second.

First: chain 5 I2S
Second: chain 5 N4V
The ratio to parent of the first is higher: 1.01 for the first, 0.0259 for the second.

Compared with chain 5 I3Y, chain 5 I3P is lower in ratio to parent: 0.966 for the first, 0.927 for the second.

Going from chain 5 S1V to chain 5 I2T, the ratio to parent rises from 0.9 to 1.01.

Going from chain 5 F5Y to chain 5 N4M, the ratio to parent falls from 1.05 to 0.00791.

Compared with chain 5 S1G, chain 5 I2W is lower in ratio to parent: 0.933 for the first, 0.861 for the second.

Going from chain 5 L8R to chain 5 I2Y, the ratio to parent falls from 0.997 to 0.814.

Compared with chain 5 I3C, chain 5 F5D is lower in ratio to parent: 0.989 for the first, 0.905 for the second.

Going from chain 5 F5P to chain 5 K7S, the ratio to parent falls from 1.03 to 0.785.

Compared with chain 5 F5V, chain 5 K7P is lower in ratio to parent: 0.909 for the first, 0.667 for the second.

With chain 5 F5E the ratio to parent was 0.856.
